# From paper PMC12871931, “The importin‐alpha superfamily engages in ethylene signaling by shuttling [sequence] INSENSITIVE 2 from the endoplasmic reticulum to the nucleus” (The Febs Journal, 2025)
# Ends that are not written are not given here. * marks the point of attachment. 5‑TAMRA = 5-carboxytetramethylrhodamine, N-terminal label, CN(C)c1ccc2c(-c3ccc(C(=O)*)cc3C(=O)[O-])c3ccc(N(C)C)cc3[o+]c2c1
# B1: NOP‐1 (EIN2 NLS peptide, EIN2 residues 1262–1269) (peptide)
# peptide: LKRYKRRL
# notes: 8 residues; The methods speak of amidated C-termini and acetylated N-termini of 'the D-ri-peptides'; whether this holds for NOP-1 is not clear; also called EIN2‐NLS core motif; basic EIN2‐NLS probe; source: synthetic peptide, bought: GenScript
# B2: GB1‐AtEIN2C^1215–1281 (domain or fragment, Arabidopsis thaliana, UniProt Q9S814 1215-1281, looked up)
# chain: KGKCTTAVTLLDLIKDVEMAISCRKGRTGTAAGDVAFPKGKENLASVLKRYKRRLSNKPVGMNQDGP
# notes: cloned into pETEV16b with a GB1-domain at the N terminus to enhance solubility; also called GB1_AtEIN2^1215–1281; shortened EIN2 CEND; source: E. coli BL21pRARE, purified (Ni2+-IMAC); not shown: GB1 domain, N-terminal, kept
# B3: TAMRA‐NOP‐1 (EIN2 NLS peptide, N‐terminally labeled with 5‐TAMRA) (peptide)
# peptide: {5‑TAMRA}-LKRYKRRL
# notes: also called fluorescently labeled NOP‐1; source: synthetic peptide (solid-phase peptide synthesis, Fmoc, made in house)
# B4: N41P‐1 (EIN2 residues 1229–1269) (peptide, UniProt Q9S814 1229-1269, looked up)
# peptide: KDVEMAISCRKGRTGTAAGDVAFPKGKENLASVLKRYKRRL
# notes: 41 residues; The methods speak of amidated C-termini and acetylated N-termini of 'the D-ri-peptides'; whether this holds for N41P-1 is not clear; also called extended EIN2‐NLS probe N41P‐1; source: synthetic peptide, bought: GenScript
# What was measured:
# Details in all cases: both partners purified
# [1] = target: T1, importin α4 (IMPα4), Arabidopsis thaliana, recombinant (Arabidopsis thaliana, UniProt O80480 1-538, biotin (Biotin-PEG4-NHS ester Protein Labeling Kit) in the BLI experiments only); experiment: BLI; Octet K2; biotinylated ΔIBB_IMPα1 or IMPα4 loaded (15 μM, 600 s) on streptavidin biosensors; peptides/protein in solution; 100 mM Tris pH 7.0, 100 mM KCl, 0.01% Tween 20; room temperature; 300 s association, 300 s dissociation; dose response curves, 1:2 heterogeneous ligand model
# T1 construct: importin alpha isoform 4 of Arabidopsis thaliana; gene isolated from A. thaliana, cloned into pETEV21a; Unlabelled in fluorescence polarisation; biotinylated and held on streptavidin tips in BLI; source: E. coli BL21pRARE, purified (Ni2+-IMAC)
# [2] = target: T1, importin α4 (IMPα4), Arabidopsis …; experiment: fluorescence polarisation; competition: TAMRA-NOP-1 and IMPα4 (6 μM) held constant, unlabelled competitor concentration varied; Logistic Fit in Origin; n = 3
# [3] = target: T2, importin α6 (IMPα6), Arabidopsis thaliana, recombinant (Arabidopsis thaliana, UniProt Q9FWY7 1-538); experiment: fluorescence polarisation; direct titration: TAMRA-NOP-1 constant at 250 nM, IMPα protein concentration varied; 50 μL samples; LS55 spectrometer; Kd by Logistic Fit in Origin; three independent measurements
# T2 construct: importin alpha isoform 6 of Arabidopsis thaliana; gene synthesised by GenScript, cloned into pETEV21a; source: E. coli BL21pRARE, purified (Ni2+-IMAC)
# T2 sequence (looked up): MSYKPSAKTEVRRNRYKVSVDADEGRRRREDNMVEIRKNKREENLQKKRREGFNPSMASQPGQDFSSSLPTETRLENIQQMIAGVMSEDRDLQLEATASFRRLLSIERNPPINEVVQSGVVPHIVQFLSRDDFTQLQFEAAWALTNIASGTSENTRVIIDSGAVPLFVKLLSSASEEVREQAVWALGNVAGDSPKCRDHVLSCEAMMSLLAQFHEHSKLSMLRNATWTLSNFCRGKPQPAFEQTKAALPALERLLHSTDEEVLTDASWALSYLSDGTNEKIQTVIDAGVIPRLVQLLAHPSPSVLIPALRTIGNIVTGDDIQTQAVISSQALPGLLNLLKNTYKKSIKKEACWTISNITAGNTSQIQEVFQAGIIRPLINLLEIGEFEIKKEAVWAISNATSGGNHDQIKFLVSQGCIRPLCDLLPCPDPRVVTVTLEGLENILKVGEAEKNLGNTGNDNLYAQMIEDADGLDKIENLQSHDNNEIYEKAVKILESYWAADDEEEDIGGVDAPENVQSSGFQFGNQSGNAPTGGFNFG
# [4] = target: T3, importin α2 (IMPα2), Arabidopsis thaliana, recombinant (Arabidopsis thaliana, UniProt F4JL11 1-535); experiment: as above
# T3 construct: importin alpha isoform 2 of Arabidopsis thaliana; gene isolated from A. thaliana, cloned into pETEV21a; source: E. coli BL21pRARE, purified (Ni2+-IMAC)
# [5] = target: T4, importin α8 (IMPα8), Arabidopsis thaliana, recombinant (Arabidopsis thaliana, UniProt Q9FJ92 1-441); experiment: as above
# T4 construct: importin alpha isoform 8 of Arabidopsis thaliana (contains only ARM repeats, no IBB domain); gene isolated from A. thaliana, cloned into pETEV21a; source: E. coli BL21gold, purified (Ni2+-IMAC)
# T4 sequence (looked up): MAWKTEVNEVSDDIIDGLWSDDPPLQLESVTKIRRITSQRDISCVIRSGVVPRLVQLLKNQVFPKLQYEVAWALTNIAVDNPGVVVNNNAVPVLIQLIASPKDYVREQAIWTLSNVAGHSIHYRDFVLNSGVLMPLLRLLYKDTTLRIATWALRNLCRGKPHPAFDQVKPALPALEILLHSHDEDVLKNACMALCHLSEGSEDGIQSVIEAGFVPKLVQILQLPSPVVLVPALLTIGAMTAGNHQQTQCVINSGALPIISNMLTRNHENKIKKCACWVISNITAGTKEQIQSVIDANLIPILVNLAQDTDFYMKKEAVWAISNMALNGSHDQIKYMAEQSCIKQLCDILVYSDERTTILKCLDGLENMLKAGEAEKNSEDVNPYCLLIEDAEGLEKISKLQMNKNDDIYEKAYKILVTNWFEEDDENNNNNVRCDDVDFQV
# [6] = target: T5, importin α5 (IMPα5), Arabidopsis thaliana, recombinant (Arabidopsis thaliana, UniProt Q9FJ09 1-519); experiment: as above
# T5 construct: importin alpha isoform 5 of Arabidopsis thaliana; gene synthesised by GenScript, cloned into pETEV21a; IMPα5 was additionally cloned into pETEV16b (N-terminal deca-His-tag); source: E. coli BL21pRARE, purified (Ni2+-IMAC)
# T5 sequence (looked up): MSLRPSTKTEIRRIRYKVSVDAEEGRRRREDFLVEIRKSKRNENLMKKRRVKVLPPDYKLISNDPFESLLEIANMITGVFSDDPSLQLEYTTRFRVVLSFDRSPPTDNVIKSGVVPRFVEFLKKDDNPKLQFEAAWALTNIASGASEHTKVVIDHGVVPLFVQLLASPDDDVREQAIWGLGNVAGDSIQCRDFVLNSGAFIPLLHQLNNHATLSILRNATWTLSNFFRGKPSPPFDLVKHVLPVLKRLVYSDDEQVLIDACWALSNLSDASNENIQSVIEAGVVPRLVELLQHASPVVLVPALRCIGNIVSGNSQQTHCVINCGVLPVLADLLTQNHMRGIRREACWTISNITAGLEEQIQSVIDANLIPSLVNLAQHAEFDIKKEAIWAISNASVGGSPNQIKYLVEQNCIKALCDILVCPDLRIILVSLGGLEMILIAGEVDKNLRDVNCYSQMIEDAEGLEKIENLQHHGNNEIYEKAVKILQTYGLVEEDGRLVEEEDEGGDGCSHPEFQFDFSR
# [7] = target: T6, importin α3 (IMPα3), Arabidopsis thaliana, recombinant (Arabidopsis thaliana, UniProt O04294 1-531); experiment: as above
# T6 construct: importin alpha isoform 3 of Arabidopsis thaliana; gene isolated from A. thaliana, cloned into pETEV21a; source: E. coli BL21pRARE, purified (Ni2+-IMAC)
# [8] = target: T7, importin α9 (IMPα9), Arabidopsis thaliana, recombinant (Arabidopsis thaliana, UniProt F4KF65 1-519); experiment: as above
# T7 construct: importin alpha isoform 9 of Arabidopsis thaliana; gene synthesised by GenScript, cloned into pETEV21a; source: E. coli BL21pRARE, purified (Ni2+-IMAC)
# T7 sequence (looked up): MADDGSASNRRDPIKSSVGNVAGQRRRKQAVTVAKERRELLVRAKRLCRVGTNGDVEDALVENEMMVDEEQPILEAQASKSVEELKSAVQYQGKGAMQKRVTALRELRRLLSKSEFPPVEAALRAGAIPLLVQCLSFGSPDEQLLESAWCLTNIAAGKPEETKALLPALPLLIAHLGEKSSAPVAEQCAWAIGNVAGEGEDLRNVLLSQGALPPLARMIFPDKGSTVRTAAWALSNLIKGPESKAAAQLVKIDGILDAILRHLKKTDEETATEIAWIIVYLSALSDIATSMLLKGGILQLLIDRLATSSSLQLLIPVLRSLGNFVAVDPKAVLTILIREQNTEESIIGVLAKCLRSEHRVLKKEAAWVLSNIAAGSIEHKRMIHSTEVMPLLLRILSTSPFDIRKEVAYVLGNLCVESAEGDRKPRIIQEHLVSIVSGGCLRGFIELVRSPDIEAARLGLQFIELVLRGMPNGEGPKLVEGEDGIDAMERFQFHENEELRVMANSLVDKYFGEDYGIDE
# [9] = target: T1, importin α4 (IMPα4), Arabidopsis …; experiment: as above
# T1 sequence (O80480 whole entry, canonical isoform): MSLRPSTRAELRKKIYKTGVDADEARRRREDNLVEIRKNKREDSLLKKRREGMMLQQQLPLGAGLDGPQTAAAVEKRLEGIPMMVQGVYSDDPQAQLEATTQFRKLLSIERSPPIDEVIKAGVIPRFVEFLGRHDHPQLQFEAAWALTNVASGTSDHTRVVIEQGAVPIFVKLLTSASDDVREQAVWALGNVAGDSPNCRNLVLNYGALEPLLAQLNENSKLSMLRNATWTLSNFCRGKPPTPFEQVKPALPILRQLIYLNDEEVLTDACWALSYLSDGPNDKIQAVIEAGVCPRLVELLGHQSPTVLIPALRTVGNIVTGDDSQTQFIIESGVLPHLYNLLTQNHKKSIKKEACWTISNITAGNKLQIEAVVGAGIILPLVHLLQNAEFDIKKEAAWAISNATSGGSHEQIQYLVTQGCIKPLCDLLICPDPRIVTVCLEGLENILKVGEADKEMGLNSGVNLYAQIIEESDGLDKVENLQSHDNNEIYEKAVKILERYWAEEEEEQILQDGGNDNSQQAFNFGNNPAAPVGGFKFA
# T3 sequence (F4JL11 whole entry, canonical isoform): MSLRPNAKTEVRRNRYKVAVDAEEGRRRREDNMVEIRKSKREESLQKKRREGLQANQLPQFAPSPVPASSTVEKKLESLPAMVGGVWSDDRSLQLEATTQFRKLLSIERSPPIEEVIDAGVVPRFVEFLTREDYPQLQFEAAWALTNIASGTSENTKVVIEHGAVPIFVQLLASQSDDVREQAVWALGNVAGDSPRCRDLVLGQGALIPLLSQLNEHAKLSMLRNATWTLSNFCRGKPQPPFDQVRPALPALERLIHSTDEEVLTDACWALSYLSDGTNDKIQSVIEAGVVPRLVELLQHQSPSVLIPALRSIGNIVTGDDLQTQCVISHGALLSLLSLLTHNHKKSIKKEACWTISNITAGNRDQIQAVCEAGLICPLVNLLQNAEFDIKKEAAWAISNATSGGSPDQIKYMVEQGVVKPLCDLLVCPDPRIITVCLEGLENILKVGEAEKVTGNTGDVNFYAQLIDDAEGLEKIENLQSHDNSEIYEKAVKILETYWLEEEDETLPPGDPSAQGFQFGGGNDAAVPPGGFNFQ
# T6 sequence (O04294 whole entry, canonical isoform): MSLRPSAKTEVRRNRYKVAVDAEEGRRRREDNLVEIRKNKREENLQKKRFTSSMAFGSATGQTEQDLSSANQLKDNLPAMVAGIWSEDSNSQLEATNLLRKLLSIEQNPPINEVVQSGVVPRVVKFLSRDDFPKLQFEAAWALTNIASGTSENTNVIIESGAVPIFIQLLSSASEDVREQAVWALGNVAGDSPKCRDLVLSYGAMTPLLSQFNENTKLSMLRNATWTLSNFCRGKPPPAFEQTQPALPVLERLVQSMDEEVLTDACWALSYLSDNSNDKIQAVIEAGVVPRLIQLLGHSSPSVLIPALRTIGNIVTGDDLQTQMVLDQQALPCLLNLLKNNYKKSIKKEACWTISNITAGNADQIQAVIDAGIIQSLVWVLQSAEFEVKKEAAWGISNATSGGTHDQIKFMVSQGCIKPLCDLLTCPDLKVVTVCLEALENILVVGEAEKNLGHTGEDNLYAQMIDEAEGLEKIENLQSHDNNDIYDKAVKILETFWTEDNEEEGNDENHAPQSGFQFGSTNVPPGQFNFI
binder,measurement,setting,value
B1,Kd,[1],7.6 µM
same,Kd,[2],4.1 ± 0.4 µM
B2,Kd high,[1],21.4 µM
same,Kd low,[1],0.455 µM
same,Kd,[2],22.1 ± 2.8 µM
B3,Kd,[3],8.7 ± 1.5 µM
same,binding result,[4],binds
same,Kd,[5],7.9 ± 0.2 µM
same,Kd,[6],12.9 ± 0.9 µM
same,binding result,[7],binds
same,Kd,[8],13.8 ± 0.9 µM
same,Kd,[9],~6 µM
B4,Kd,[1],9.8 µM
same,Kd,[2],8.1 ± 1.1 µM
